Measurements from US6034071.

Biological target: FLAG epitope tagged adenylyl cyclase 2 (rat)

- 32P incorporated into purified F-AC2 after PMA treatment of the cells: 3 fold
Substance: protein kinase C (enzyme)
